Test results reported in patent US20110300138A1 (published 2011).
Read-outs that look alike come from different tables or passages of the source.

Experiments:
Test in all cases: cell-based or functional assay
[1] = biological target: TSHR with Arg255 mutated to Ala, expressed in CHO cells (human) (UniProt P16473)
[2] = biological target: TSHR with Asp203 mutated to Ala expressed in CHO cells (human) (UniProt P16473)
[3] = biological target: TSHR with Glu178 mutated to Ala expressed in CHO cells (human) (UniProt P16473)
[4] = biological target: TSHR with Lys183 mutated to Ala expressed in CHO cells (human) (UniProt P16473)
[5] = biological target: TSHR with Lys183 mutated to Asp expressed in CHO cells (human) (UniProt P16473)
[6] = biological target: TSHR with Lys250 mutated to Ala (expressed in CHO cells) (human) (UniProt P16473)
[7] = biological target: TSHR with Lys58 mutated to Ala expressed in CHO cells (human) (UniProt P16473)
[8] = biological target: wild type TSHR (human TSH receptor) expressed in CHO cells (human) (UniProt P16473)
[9] = biological target: wild type TSHR expressed in CHO cells (human) (UniProt P16473)
[10] = biological target: TSHR with Arg80 mutated to Ala expressed in CHO cells (human) (UniProt P16473)
[11] = biological target: wild type TSHR expressed in CHO cells (human) (UniProt P16473); remark: listed apart in the source
[12] = biological target: TSHR with Tyr82 mutated to Ala expressed in CHO cells (human) (UniProt P16473)
[13] = biological target: wild type TSHR expressed in CHO cells (human) (UniProt P16473); remark: listed apart in the source
[14] = biological target: human TSHR with Glu251 mutated to Ala expressed in CHO cells (human) (UniProt P16473)
[15] = biological target: wild type TSHR expressed in CHO cells (human) (UniProt P16473); remark: listed apart in the source
[16] = biological target: TSHR with Thr257 mutated to Ala, expressed in CHO cells (human) (UniProt P16473)
[17] = biological target: wild type TSHR (human TSH receptor) expressed in CHO cells (human) (UniProt P16473); remark: listed apart in the source
[18] = biological target: TSHR with Trp258 mutated to Ala, expressed in CHO cells (human) (UniProt P16473)
[19] = biological target: wild type TSHR (human TSH receptor) expressed in CHO cells (human) (UniProt P16473); remark: listed apart in the source

TSH (thyroid stimulating hormone) (ligand)
% inhibition of TSH stimulation; TSH (2), run at the end of assay [1]: 7%
Cyclic AMP produced; TSH 3 ng/mL [1]: 63.9 pmol/mL
Cyclic AMP produced; TSH (2) 3 ng/mL, run at the end of assay [1]: 59.6 pmol/mL
Mutated/wild type (%) of cyclic AMP produced; TSH 3 ng/mL [1]: 102%
Mutated/wild type (%) of cyclic AMP produced; TSH (2) 3 ng/mL, run at the end of assay [1]: 87%
% inhibition of TSH stimulation: TSH (2) [2]: 0%
Cyclic AMP, Mutated/wild type (%): TSH 3 ng/mL [2]: 76%
Cyclic AMP, Mutated/wild type (%): TSH (2) [2]: 87%
% inhibition of TSH stimulation; TSH (2), run at the end of assay; Exp 1 [3]: 12%
% inhibition of TSH stimulation; TSH (2), run at the end of assay; Exp 2 [3]: 5%
Cyclic AMP produced; TSH 3 ng/mL; Exp 1 [3]: 56.6 pmol/mL
Cyclic AMP produced; TSH 3 ng/mL; Exp 2 [3]: 46.2 pmol/mL
Cyclic AMP produced; TSH (2) 3 ng/mL, run at the end of assay; Exp 1 [3]: 50.1 pmol/mL
Cyclic AMP produced; TSH (2) 3 ng/mL, run at the end of assay; Exp 2 [3]: 44.1 pmol/mL
Mutated/wild type (%) of cyclic AMP produced; TSH 3 ng/mL; Exp 1 [3]: 107%
Mutated/wild type (%) of cyclic AMP produced; TSH 3 ng/mL; Exp 2 [3]: 53%
Mutated/wild type (%) of cyclic AMP produced; TSH (2) 3 ng/mL, run at the end of assay; Exp 1 [3]: 65%
Mutated/wild type (%) of cyclic AMP produced; TSH (2) 3 ng/mL, run at the end of assay; Exp 2 [3]: 50%
% inhibition of TSH stimulation, Exp 1: TSH (2) [4]: 18%
% inhibition of TSH stimulation, Exp 2: TSH (2) [4]: 23%
Cyclic AMP, Mutated/wild type (%), Exp 1: TSH 3 ng/mL [4]: 124%
Cyclic AMP, Mutated/wild type (%), Exp 1: TSH (2) [4]: 74%
Cyclic AMP, Mutated/wild type (%), Exp 2: TSH 3 ng/mL [4]: 128%
% inhibition of TSH stimulation; TSH (2), run at the end of assay [5]: 20%
Cyclic AMP produced; TSH 3 ng/mL [5]: 117 pmol/mL
Cyclic AMP produced; TSH (2) 3 ng/mL, run at the end of assay [5]: 93.4 pmol/mL
Mutated/wild type (%) of cyclic AMP produced; TSH 3 ng/mL [5]: 137%
% inhibition of TSH stimulation; TSH (2), run at the end of assay, no antibody; Experiment 1 [6]: 10%
% inhibition of TSH stimulation; TSH (2), run at the end of assay, no antibody; Experiment 2 [6]: 7%
Cyclic AMP produced; TSH 3 ng/mL alone; Experiment 1 [6]: 64.7 pmol/mL
Cyclic AMP produced; TSH 3 ng/mL alone; Experiment 2 [6]: 55 pmol/mL
Cyclic AMP produced; TSH (2) 3 ng/mL, run at the end of assay; Experiment 1 [6]: 58.3 pmol/mL
Cyclic AMP produced; TSH (2) 3 ng/mL, run at the end of assay; Experiment 2 [6]: 51.1 pmol/mL
Mutated/wild type (%) of cyclic AMP produced; TSH 3 ng/mL alone; Experiment 1 [6]: 83%
Mutated/wild type (%) of cyclic AMP produced; TSH 3 ng/mL alone; Experiment 2 [6]: 64%
Cyclic AMP produced at 0.01 ng/mL TSH [7]: 7.16 pmol/mL
Cyclic AMP produced at 0.03 ng/mL TSH [7]: 10 pmol/mL
Cyclic AMP produced at 0.1 ng/mL TSH [7]: 17.2 pmol/mL
Cyclic AMP produced at 0.3 ng/mL TSH [7]: 45.9 pmol/mL
Cyclic AMP produced at 1 ng/mL TSH [7]: 75.2 pmol/mL
Cyclic AMP produced at 3 ng/mL TSH [7]: 83.7 pmol/mL
Mutated/Wild type (%) of cyclic AMP at 0.01 ng/mL TSH [7]: 230%
Mutated/Wild type (%) of cyclic AMP at 0.03 ng/mL TSH [7]: 226%
Mutated/Wild type (%) of cyclic AMP at 0.1 ng/mL TSH [7]: 171%
Mutated/Wild type (%) of cyclic AMP at 0.3 ng/mL TSH [7]: 111%
Mutated/Wild type (%) of cyclic AMP at 1 ng/mL TSH [7]: 101%
Mutated/Wild type (%) of cyclic AMP at 3 ng/mL TSH [7]: 88%
% inhibition of TSH stimulation, Exp 1: TSH (2) [8]: 0%
% inhibition of TSH stimulation, Exp 2: TSH (2) [8]: 0%
% inhibition of TSH stimulation: TSH (2) [8]: 0%
% inhibition of TSH stimulation; TSH (2), run at the end of assay [8]: 0%
Cyclic AMP produced; TSH 3 ng/mL [8]: 62.4 pmol/mL
Cyclic AMP produced; TSH (2) 3 ng/mL, run at the end of assay [8]: 68.4 pmol/mL
% inhibition of TSH stimulation; TSH (2), run at the end of assay [9]: 0%
% inhibition of TSH stimulation; TSH (2), run at the end of assay, no antibody; Experiment 1 [9]: 0%
% inhibition of TSH stimulation; TSH (2), run at the end of assay, no antibody; Experiment 2 [9]: 12%
% inhibition of TSH stimulation; TSH (2), run at the end of assay; Exp 1 [9]: 0%
% inhibition of TSH stimulation; TSH (2), run at the end of assay; Exp 2 [9]: 0%
Cyclic AMP produced at 0.01 ng/mL TSH [9]: 3.11 pmol/mL
Cyclic AMP produced at 0.03 ng/mL TSH [9]: 4.43 pmol/mL
Cyclic AMP produced at 0.1 ng/mL TSH [9]: 10.1 pmol/mL
Cyclic AMP produced at 0.3 ng/mL TSH [9]: 41.2 pmol/mL
Cyclic AMP produced at 1 ng/mL TSH [9]: 74.5 pmol/mL
Cyclic AMP produced at 3 ng/mL TSH [9]: 95.3 pmol/mL
Cyclic AMP produced; TSH 3 ng/mL [9]: 85.8 pmol/mL
Cyclic AMP produced; TSH 3 ng/mL alone; Experiment 1 [9]: 77.9 pmol/mL
Cyclic AMP produced; TSH 3 ng/mL alone; Experiment 2 [9]: 86.5 pmol/mL
Cyclic AMP produced; TSH 3 ng/mL; Exp 1 [9]: 52.9 pmol/mL
Cyclic AMP produced; TSH 3 ng/mL; Exp 2 [9]: 87.2 pmol/mL
Cyclic AMP produced; TSH (2) 3 ng/mL, run at the end of assay [9]: 97.8 pmol/mL
Cyclic AMP produced; TSH (2) 3 ng/mL, run at the end of assay; Exp 1 [9]: 77.2 pmol/mL
Cyclic AMP produced; TSH (2) 3 ng/mL, run at the end of assay; Exp 2 [9]: 88.1 pmol/mL
Cyclic AMP produced; TSH (2) 3 ng/mL, run at the end of assay; Experiment 1 [9]: 84.5 pmol/mL
Cyclic AMP produced; TSH (2) 3 ng/mL, run at the end of assay; Experiment 2 [9]: 75.9 pmol/mL
Cyclic AMP produced at 0.01 ng/mL TSH [10]: 4.06 pmol/mL
Cyclic AMP produced at 0.03 ng/mL TSH [10]: 6.19 pmol/mL
Cyclic AMP produced at 0.1 ng/mL TSH [10]: 13.3 pmol/mL
Cyclic AMP produced at 0.3 ng/mL TSH [10]: 27.7 pmol/mL
Cyclic AMP produced at 1 ng/mL TSH [10]: 54.5 pmol/mL
Cyclic AMP produced at 3 ng/mL TSH [10]: 57 pmol/mL
Mutated/Wild type (%) of cyclic AMP at 0.01 ng/mL TSH [10]: 203%
Mutated/Wild type (%) of cyclic AMP at 0.03 ng/mL TSH [10]: 168%
Mutated/Wild type (%) of cyclic AMP at 0.1 ng/mL TSH [10]: 146%
Mutated/Wild type (%) of cyclic AMP at 0.3 ng/mL TSH [10]: 125%
Cyclic AMP produced at 0.01 ng/mL TSH [11]: 2 pmol/mL
Cyclic AMP produced at 0.03 ng/mL TSH [11]: 3.68 pmol/mL
Cyclic AMP produced at 0.1 ng/mL TSH [11]: 9.1 pmol/mL
Cyclic AMP produced at 0.3 ng/mL TSH [11]: 22.2 pmol/mL
Cyclic AMP produced at 1 ng/mL TSH [11]: 57.5 pmol/mL
Cyclic AMP produced at 3 ng/mL TSH [11]: 58.5 pmol/mL
Cyclic AMP produced at 0.01 ng/mL TSH [12]: 2.6 pmol/mL
Cyclic AMP produced at 0.03 ng/mL TSH [12]: 4.1 pmol/mL
Cyclic AMP produced at 0.1 ng/mL TSH [12]: 9.64 pmol/mL
Cyclic AMP produced at 0.3 ng/mL TSH [12]: 33.7 pmol/mL
Cyclic AMP produced at 1 ng/mL TSH [12]: 50 pmol/mL
Cyclic AMP produced at 3 ng/mL TSH [12]: 61.3 pmol/mL
Mutated/Wild type (%) of cyclic AMP at 0.01 ng/mL TSH [12]: 257%
Mutated/Wild type (%) of cyclic AMP at 0.03 ng/mL TSH [12]: 93%
Mutated/Wild type (%) of cyclic AMP at 0.1 ng/mL TSH [12]: 100%
Mutated/Wild type (%) of cyclic AMP at 0.3 ng/mL TSH [12]: 113%
Mutated/Wild type (%) of cyclic AMP at 3 ng/mL TSH [12]: 108%
Cyclic AMP produced at 0.01 ng/mL TSH [13]: 1.01 pmol/mL
Cyclic AMP produced at 0.03 ng/mL TSH [13]: 4.39 pmol/mL
Cyclic AMP produced at 0.1 ng/mL TSH [13]: 9.67 pmol/mL
Cyclic AMP produced at 0.3 ng/mL TSH [13]: 29.8 pmol/mL
Cyclic AMP produced at 1 ng/mL TSH [13]: 53.3 pmol/mL
Cyclic AMP produced at 3 ng/mL TSH [13]: 56.6 pmol/mL
% inhibition of TSH stimulation; TSH (2), run at the end of assay, no antibody [14]: 0%
Cyclic AMP produced; TSH 3 ng/mL alone [14]: 76.1 pmol/mL
Cyclic AMP produced; TSH (2) 3 ng/mL, run at the end of assay [14]: 87.4 pmol/mL
Mutated/wild type (%) of cyclic AMP produced; TSH 3 ng/mL alone [14]: 78%
Mutated/wild type (%) of cyclic AMP produced; TSH (2) 3 ng/mL, run at the end of assay [14]: 84%
% inhibition of TSH stimulation; TSH (2), run at the end of assay, no antibody [15]: 0%
Cyclic AMP produced; TSH 3 ng/mL alone [15]: 97.5 pmol/mL
Cyclic AMP produced; TSH (2) 3 ng/mL, run at the end of assay [15]: 104 pmol/mL
% inhibition of TSH stimulation; TSH (2), run at the end of assay [16]: 8%
Cyclic AMP produced; TSH 3 ng/mL [16]: 93.2 pmol/mL
Cyclic AMP produced; TSH (2) 3 ng/mL, run at the end of assay [16]: 85.4 pmol/mL
Mutated/wild type (%) of cyclic AMP produced; TSH 3 ng/mL [16]: 141%
Cyclic AMP produced; TSH 3 ng/mL [17]: 66.1 pmol/mL
Cyclic AMP produced; TSH (2) 3 ng/mL, run at the end of assay [17]: 93 pmol/mL
% inhibition of TSH stimulation; TSH (2), run at the end of assay [18]: 20%
Cyclic AMP produced; TSH 3 ng/mL [18]: 59.9 pmol/mL
Cyclic AMP produced; TSH (2) 3 ng/mL, run at the end of assay [18]: 47.8 pmol/mL
Mutated/wild type (%) of cyclic AMP produced; TSH 3 ng/mL [18]: 102%
Cyclic AMP produced; TSH 3 ng/mL [19]: 58.8 pmol/mL
Cyclic AMP produced; TSH (2) 3 ng/mL, run at the end of assay [19]: 69.6 pmol/mL
